Measured values taken from US12624075B2, “Immune inducer” (TORAY INDUSTRIES, INC., priority 2015, dated 2026).

Test system: HLA-A0201-positive CD8-positive T cells
Test: IFN-γ-producing ability of HLA-A0201-positive CD8-positive T cells against polypeptide-pulsed dendritic cells (ELISA)
Assay type: cell-based, human
Conditions: dendritic cells expressing HLA-A0201 pulsed with 10 μg/mL polypeptide, 24 hours, FIG. 2
Procedure: Peripheral blood was separated from the blood of an HLA-A0201-positive healthy individual. The peripheral blood was layered on Lymphocyte separation medium (Organon Teknika Corporation, Durham, NC), and then centrifuged at 1,500 rpm at room temperature for 20 minutes. A PBMC-containing fraction was collected and washed 3 times (or more) with a cold phosphate buffer solution to obtain PBMCs. The thus obtained PBMCs were suspended in 20 mL of AIM-V medium (manufactured by Life Technologies, Inc.), and allowed to adhere to a culture flask (manufactured by Falcon Plastics Co.) for 2 hours under the conditions of 37° C. and 5% CO2. Non-adherent cells were used for the preparation of T cells, and adherent cells were used for the preparation of dendritic cells.
The adherent cells were cultured in AIM-V medium in the presence of IL-4 (1,000 U/ml) and GM-CSF (1,000 U/ml). Six days later, the medium was replaced with AIM-V medium supplemented with IL-4 (1,000 U/mL), GM-CSF (1,000 U/mL), IL-6 (1,000 U/mL, manufactured by Genzyme Corporation), IL-1B (10 ng/ml, manufactured by Genzyme Corporation) and TNF-α (10 ng/ml, manufactured by Genzyme Corporation), and the cells were cultured for another 2 days. The resulting population of the non-adherent cells was used as the dendritic cells.
The thus prepared dendritic cells were suspended in AIM-V medium at a cell density of 1×10^6 cells/mL. […]

B1: full-length PDS5A protein: human PDS5A protein of 1337 amino acid residues, prepared according to Example 5 in WO 2011/027807; Comparative Example (protein, listed as Homo sapiens)
chain: MDFTAQPKPATALCGVVSADGKIAYPPGVKEITDKITTDEMIKRLKMVVKTFMDMDQDSEDEKQQYLPLALHLASEFFLRNPNKDVRLLVACCLADIFRIYAPEAPYTSHDKLKDIFLFITRQLKGLEDTKSPQFNRYFYLLENLAWVKSYNICFELEDCNEIFIQLFRTLFSVINNSHNKKVQMHMLDLMSSIIMEGDGVTQELLDSILINLIPAHKNLNKQSFDLAKVLLKRTVQTIEACIANFFNQVLVLGRSSVSDLSEHVFDLIQELFAIDPHLLLSVMPQLEFKLKSNDGEERLAVVRLLAKLFGSKDSDLATQNRPLWQCFLGRFNDIHVPVRLESVKFASHCLMNHPDLAKDLTEYLKVRSHDPEEAIRHDVIVTIITAAKRDLALVNDQLLGFVRERTLDKRWRVRKEAMMGLAQLYKKYCLHGEAGKEAAEKVSWIKDKLLHIYYQNSIDDKLLVEKIFAQYLVPHNLETEERMKCLYYLYASLDPNAVKALNEMWKCQNMLRSHVRELLDLHKQPTSEANCSAMFGKLMTIAKNLPDPGKAQDFVKKFNQVLGDDEKLRSQLELLISPTCSCKQADICVREIARKLANPKQPTNPFLEMVKFLLERIAPVHIDSEAISALVKLMNKSIEGTADDEEEGVSPDTAIRSGLELLKVLSFTHPTSFHSAETYESLLQCLRMEDDKVAEAAIQIFRNTGHKIETDLPQIRSTLIPILHQKAKRGTPHQAKQAVHCIHAIFTNKEVQLAQIFEPLSRSLNADVPEQLITPLVSLGHISMLAPDQFASPMKSVVANFIVKDLLMNDRSTGEKNGKLWSPDEEVSPEVLAKVQAIKLLVRWLLGMKNNQSKSANSTLRLLSAMLVSEGDLTEQKRISKSDMSRLRLAAGSAIMKLAQEPCYHEIITPEQFQLCALVINDECYQVRQIFAQKLHKALVKLLLPLEYMAIFALCAKDPVKERRAHARQCLLKNISIRREYIKQNPMATEKLLSLLPEYVVPYMIHLLAHDPDFTRSQDVDQLRDIKECLWFMLEVLMTKNENNSHAFMKKMAENIKLTRDAQSPDESKTNEKLYTVCDVALCVINSKSALCNADSPKDPVLPMKFFTQPEKDFCNDKSYISEETRVLLLTGKPKPAGVLGAVNKPLSATGRKPYVRSTGTETGSNINVNSELNPSTGNRSREQSSEAAETGVSENEENPVRIISVTPVKNIDPVKNKEINSDQATQGNISSDRGKKRTVTAAGAENIQQKTDEKVDESGPPAPSKPRRGRRPKSESQGNATKNDDLNKPINKGRKRAAVGQESPGGLEAGNAKAPKLQDLAKKAAPAERQIDLQR
- amount of IFN-γ produced: low
